The results in this text go back to patent US5981167A, “Surface plasmon resonance based enzymatic assay” (priority 1998, dated 1999).

Assay [1] relates to HCV protease His-NS3(183)Δ4AHT. The conditions noted are these: concentrated enzyme.
The target of assay [2] is maturation site peptide […] (CMV).
Assay [3] deals with in vitro-translated 5A/5B substrate. As to the kind of experiment: Trans-cleavage assay in the presence of 4A peptide. Format: biochemical, HCV. The conditions noted are these: refolded protein. The source says: Precipitation of protein occurred at the last step of dialysis, and the soluble protein was clarified by centrifugation. The overall protein recovery was about 0.10%.

Bounds are passed on as bounds.

In the case of Biotin-DTEDVVAC SMSYTWTGK-pY, in assay [1], the “time to 50% substrate cleavage” value was not above 1 h.
In the case of “CMV protease, refolded wild type (from UniProt P16753) (enzyme)”, the Km in assay [2] stood at 1020 µM.

B1: HisHIV183: HCV NS3 protease without solubilizing motif, refolded from E. coli inclusion body pellet (protein)
chain: APITAYAQQTRGLLGCIITSLTGRDKNQVEGEVQIVSTATQTFLATCINGVCWTVYHGAGTRTIASPKGPVIQTYTNVDQDLVGWPAPQGSRSLTPCTCGSSDLYLVTRHADVIPVRRRGDSRGSLLSPRPISYLKGSSGGPLLCPTGHAVGLFRAAVCTRGVAKAVDFIPVENLETTMRSPV
Regarding B1, the “activity in trans-cleavage assay” value in assay [3] is “active”.
